{"source": "paper PMC10499821", "parents": {"B1": {"name": "unnamed (parent)", "chain 1": "NNELSPVALRQMSCAAGTTQTACTDDNALAYYNTTKGGRFVLALLSDLQDLKWARFPKSDGTGTIYTELEPPCRFVTDTPKGPKVKYLYFIKGLNNLNRGMVLGSLAATVRLQ", "chain 2": "AEGIDIGEMPSYDLVL"}}}
{"variants_of": "B1", "assay": "fluorescence polarisation saturation", "conditions": "with partner chain of the complex shown", "units": {"Kd": "µM"}}
{"variant": "chain 1 G100N G104D", "Kd": 20}
